Laboratory results: patent publication US8114968 (DYAX, dated 2012)
Numbering of substitutions follows the chain as printed.

B1: 539A-M0013-G12 IgG (antibody, V domains shown)
VH: EVQLLESGGGLVQPGGSLRLSCAASGFTFSWYHMFWVRQAPGKGLEWVSGISSSGGYTHYADSVKGRFTISRDNSKNTLYLQMNSLRAEDTAVYYCATREGMLYDYVWGENYMDVWGKGTTVTVSS
VL: DIQMTQSPSSLSASVGDRVTITCQASQDTYNRLHWYQQKPGKAPKLLIYDAVNLNRGVPSRFRGSGSGTNYILIITNLQPEDTATYYCQHSDDLSLAFGGGTKVEIK
notes: also called M0013-G12 IgG a-huMMP12
B2: 539A-M0016-A11 IgG (antibody, V domains shown)
VH: EVQLLESGGGLVQPGGSLRLSCAASGFTFSEYQMAWVRQAPGKGLEWVSSIYPSGGHTHYADSVKGRFTISRDNSKNTLYLQMNSLRAEDTAVYYCAKESYYDFWSGYYFDYWGQGTLVTVSS
VL: DIQMTQSPSSLSASVRDRVTITCRTSQNINTYLNWYYQAPGRAPKLLIFGVSSLHRGVSSRFSGSGDGTEFTLTISSLQPEDIGTYFCQQSYSSPWTFGQGTKVEIK
notes: also called M0016-A11 IgG a-huMMP12
B3: 539A-M0013-D11 IgG (antibody, V domains shown)
VH: EVQLLESGGGLVQPGGSLRLSCAASGFTFSSYPMWWVRQAPGKGLEWVSGIVPSGGVTIYADSVKGRFTISRDNSKNTLYLQMNSLRAEDTAVYYCARVGWLASSDYYYYMDVWGKGTTVTVSS
VL: DIQMTQSPSSLSASVGDRITISCQASQDIDNYLNWYQQRSGKAPKLLIYDAYNLKAGVPSRFRGSRSGTDFFLTISSLQPEDFATYYCQQSYRAPLTFGGGTKVEIK
B4: 539A-M0013-H06 IgG (antibody, V domains shown)
VH: EVQLLESGGGLVQPGGSLRLSCAASGFTFSAYEMDWVRQAPGKGLEWVSGISSSGGPTYYADSVKGRFTISRDNSKNTLYLQMNSLRAEDTAVYYCARVGGWELLQDYYYYMDVWGKGTTVTVSS
VL: DIQMTQSPATLSLSPGERATLSCRASHSVDNLAWYQQQPGQAPRLLIYDVSYRATGIPARFSGSGSGTDFTLTISSLEPEDFAVYYCQQRNNWPLSLTFGGGTKVEIK
B5: 539B-M131A06 (antibody, V domains shown)
VH: EVQLLESGGGLVQPGGSLRLSCAASGFTFSWYWMHWVRQAPGKGLEWVSGISPSGGMTMYADSVKGRFTISRDNSKNTLYLQMNSLRAEDTAVYYCARDIVGPYSAGLFDYWGRGTLVTVSS
VL: DIQMTQSPSSLSASVGDRVTITCRANQSIYTYLNWYQQKPGKAPELLIYAASSLQSGVPSRFSGSGSGTDFTLTISSLQPEDFATYYCQQAGIFGQGTKLEIK
notes: N-glycosylation site in LC CDR1; also called M0131-A06
B6: 539B-M0008-H09 Fab (Fab, V domains shown)
VH: B5 VH with W31D, W33N, G50Y, S52G, M57Y, M59H, R98K, V101R, P103A, A106S
VL: B5 VL
notes: N-glycosylation site in LC CDR1; also called M08H09
B7: 539B-M0063-G01 (Fab, V domains shown)
VH: B5 VH with H35V, G50S, S52G, M57D, M59Y, R98K, V101R, P103A, A106S
VL: B5 VL
B8: 539B-M0067-F06 (Fab, V domains shown)
VH: B5 VH with W33N, H35S, G50R, M57D, M59G, R98K, V101R, P103A, A106S
VL: B5 VL
B9: 539B-M0071-A01 (Fab, V domains shown)
VH: B5 VH with W31E, H35T, M59F, R98K, V101R, P103A, A106S
VL: B5 VL
B10: 539B-M0063-C07 (Fab, V domains shown)
VH: B5 VH with W31P, H35S, M57I, M59F, R98K, V101R, P103A, A106S
VL: B5 VL
B11: 539B-M0011-H11 Fab (Fab, V domains shown)
VH: EVQLLESGGGLVQPGGSLRLSCAASGFTFSWYNMWWVRQAPGKGLEWVSYIYPSGGNTGYADSVKGRFTISRDNSKNTLYLQMNSLRAEDTAVYYCAVFEYSSSGPQGYWGQGTLVTVSS
VL: QSALTQPPSVSVAPGQTARITCGGNNIGTKSVHWYQQKSGQAPVLVVYDNSDRPSGIPERFSGSNSGNTATLTISRVEAGDEADYYCQVWDNSIDHVVFGGGTKLTVL
B12: 539B-M0015-F02 (Fab, V domains shown)
VH: EVQLLESGGGLVQPGGSLRLSCAASGFTFSRYGMTWVRQAPGKGLEWVSGISPSGGNTWYADSVKGRFTISRDNSKNTLYLQMNSLRAEDTAVYYCTSHDYGDHYGMDVWGQGTLVTVSS
VL: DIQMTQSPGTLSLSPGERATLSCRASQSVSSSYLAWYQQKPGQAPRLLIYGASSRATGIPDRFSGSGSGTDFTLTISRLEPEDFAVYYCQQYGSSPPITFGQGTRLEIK
B13: 539B-M0007-H06 (Fab, V domains shown)
VH: EVQLLESGGGLVQPGGSLRLSCAASGFTFSHYWMHWVRQAPGKGLEWVSSISSSGGMTYYADSVKGRFTISRDNSKNTLYLQMNSLRAEDTAVYYCTTADYGYYYGMDVWGQGTTVTVSS
VL: DIQMTQSPGTLSLSSGERATLSCRASQSVSSNYLAWYQQKRGQAPRLLIYGASSRATGVPGRFSGSGSGTDFTLTISRLEPEDFAVYYCQQYGSSPRTFGQGTKLEIK
B14: 539B-M0008-H09 (format not stated) (antibody, V domains shown)
VH: B5 VH with W31D, W33N, G50Y, S52G, M57Y, M59H, R98K, V101R, P103A, A106S
VL: B5 VL
notes: Same clone as m49 and m54; also called M08H09

Target: T1, human MMP-12 (human, UniProt P39900 106-470, limits assumed)
T1 sequence (P39900 106-470 limits assumed): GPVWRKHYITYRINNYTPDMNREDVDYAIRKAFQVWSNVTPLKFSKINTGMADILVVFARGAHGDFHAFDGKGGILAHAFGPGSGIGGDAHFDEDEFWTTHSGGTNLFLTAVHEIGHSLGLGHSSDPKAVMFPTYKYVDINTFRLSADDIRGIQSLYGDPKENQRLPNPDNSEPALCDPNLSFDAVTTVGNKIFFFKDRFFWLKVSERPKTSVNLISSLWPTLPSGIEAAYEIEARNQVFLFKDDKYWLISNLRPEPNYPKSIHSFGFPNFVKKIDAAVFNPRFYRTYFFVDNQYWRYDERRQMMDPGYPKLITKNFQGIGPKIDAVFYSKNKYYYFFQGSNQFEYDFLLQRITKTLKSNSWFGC
Assay: cell-based or functional assay

IC50 (nM), IgGs [nM] | Binder
4.1 | B1
2.1 | B2
13.3 | B3
5.3 | B4

Target: T1, human MMP-12
Assay: Ki from inhibition of MMP-12 enzyme activity

Ki [nM] | Binder
2.05 | B1
0.7 | B2
4.97 | B3
2.7 | B4

Target: T1, human MMP-12
Assay: inhibition assay of MMP-12 activity ('IC50 or Ki')

Ki [nM] | Binder
< 0.3 | B5

Target: T1, human MMP-12
Assay: BIACORE, coated Fab

Kd [nM] | Binder
17.7 | B6
1.58 | B7
0.203 | B8
1.1 | B9
2.29 | B10

Target: T2, murine MMP-12 (mouse, UniProt P34960 110-473, limits assumed)
T2 construct: also called mouse MMP12; mMMP12
T2 sequence (P34960 110-473 limits assumed): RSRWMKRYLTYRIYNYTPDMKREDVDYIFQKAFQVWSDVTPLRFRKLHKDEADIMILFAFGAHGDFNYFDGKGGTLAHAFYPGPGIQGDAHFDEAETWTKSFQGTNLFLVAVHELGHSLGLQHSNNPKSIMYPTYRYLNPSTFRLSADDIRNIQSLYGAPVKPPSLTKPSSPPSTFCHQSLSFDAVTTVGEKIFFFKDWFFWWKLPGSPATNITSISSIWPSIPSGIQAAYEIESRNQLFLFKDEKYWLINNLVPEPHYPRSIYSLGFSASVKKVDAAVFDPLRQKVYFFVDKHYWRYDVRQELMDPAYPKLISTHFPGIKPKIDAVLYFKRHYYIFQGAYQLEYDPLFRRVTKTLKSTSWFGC
Assay: BIACORE, coated Fab

koff [s⁻¹] | Binder
0.004 | B6
0.00654 | B7
0.00025 | B8
0.01 | B9
0.002 | B10

Target: T1, human MMP-12
Assay: cell-based or functional assay
Remark: another data set of the same source

% of activity left with 100 nM in assay 04 Oct. 2006 [%] | Binder
12.2 | B11
84.1 | B12
55.5 | B13
4.6 | B6

Target: T1, human MMP-12
Assay: cell-based or functional assay
Remark: another data set of the same source

IC50hu [nM] | Binder
12.1 | B6
0.8 | B7
0.7 | B8
0.3 | B9
1 | B10

Target: T2, murine MMP-12
Assay: cell-based or functional assay

IC50 m | Binder
< 10 nM (not printed; inferred) | B6
> 10 nM (not printed; inferred) | B7
< 10 nM (not printed; inferred) | B8
> 10 nM (not printed; inferred) | B9
< 10 nM (not printed; inferred) | B10

Target: T1, human MMP-12
Assay: IC50 against substrate concentration, enzyme inhibition, FIG. 3

Ki [nM] | Binder
2.8 | B14

Target: T2, murine MMP-12
Assay: as above

Ki [nM] | Binder
2.2 | B14
